{"source": "patent US20190134195A1", "biological_target": "PDL1 on the surface of TC-1 cells (UniProt Q9EP73)", "sequence (Q9EP73 19-290 limits assumed)": "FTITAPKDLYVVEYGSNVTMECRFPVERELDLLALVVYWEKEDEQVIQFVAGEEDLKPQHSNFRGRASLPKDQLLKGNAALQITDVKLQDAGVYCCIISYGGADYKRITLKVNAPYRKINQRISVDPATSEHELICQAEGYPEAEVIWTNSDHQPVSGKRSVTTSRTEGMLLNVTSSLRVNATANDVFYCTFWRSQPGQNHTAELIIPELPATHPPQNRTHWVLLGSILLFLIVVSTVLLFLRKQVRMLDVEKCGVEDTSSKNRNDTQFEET", "assay": "flow cytometry, staining of TC-1 tumor cells (background control)", "data": [{"substance": "PE-conjugated isotype control antibody", "values": [{"measurement": "median fluorescent intensity (MFI)", "result": 184}]}]}
